US7026148

Molecular target: bovine calmodulin (Sigma), P62157

B1: FLAG-tagged wild type DRP-1 (DAP-kinase-related protein 1) (protein)
chain: MEPFKQQKVEDFYDIGEELGSGQFAIVKKCREKSTGLEYAAKFIKKRQSRASRRGVSREEIEREVSILRQVLHHNVITLHDVYENRTDVVHILELVSGGELFDFLAQKESLSEEEATSFIKQILDGVNYLHTKKIAHFDLKPENIMLLDKNIPIPHIKLIDFGLAHEIEDGVEFKNIFGTPEFVAPEIVNYEPLGLEADMWSIGVITYILLSGASPFLGDTKQETLANITSVSYDFDEEFFSHTSELAKDFIRKLLVKETRKRLTIQEALRHPWITPVDNQQAMVRRESVVNLENFRKQYVRRRWKLSFSIVSLCNHLTRSLMKKVHLRPDEDLRNCESDTEEDIARRKALHPRRRSSTS
amount of phosphorylated MLC in the in vitro kinase assay: The addition of Ca2+/calmodulin to the reaction mixture increased the amount of phosphorylated MLC
